# Assays:
# HEK293-F = experiment: Luciferase time course after forskolin induction, transient transfection of suspension HEK293-F; type: cell-based, human; settings: 20 µM forskolin
# Protocol: The tested promoters were synthesised directly upstream of the ATG of PM-RQ plasmid and the suspension cell lines were transiently transfected with the PM-RQ plasmid.
# 40 ml of cells were grown in a 250 ml vented Erlenmeyer flask (Sigma-Aldrich CLS431144) at 37° C., 20% O2, 8% CO2 with agitation at 100 rpm. Cells were seeded as described in the manufacturer's instructions (300,000 cells/ml). HEK293-F were obtained from Thermofisher, R79007.
# One day before transfection, the cells were counted using a haemocytometer and split to 500,000 cells/ml.
# On the day of transfection, the cells are seeded to 1,000,000 cells/ml in 500 μl of appropriate medium (Freestyle 293 expression medium, 12338002) in a 24 well plate. […] of DNA per well was then added to 10 μl of OptiMem medium (Thermofisher; 11058021) and incubated for 5 minutes at room temperature.
# Concurrently, 0.625 μl of Max reagent (Thermofisher, 16447100) was made up to 10 μl by addition of OptiMem and incubated for 5 minutes at room temperature. After this incubation, both mixes were added to the same tube and incubated at room temperature for 25-30 minutes. […]
# 24 hours after transfection, the promoters were induced by addition of […] forskolin and luciferase activity was measured 0, 3, 5 and 24 hours after induction. Luciferase activity was measured as previously described.
# CHO-GS-KSV1 cell line = experiment: SEAP expression in stably transfected CHO-GS-KSV1, forskolin or NKH477 induction; type: cell-based, chinese hamster; settings: stable CHO-GS-KSV1, SEAP, forskolin or NKH477
# Protocol: The forskolin-inducible promoters were then tested in a stably transfected CHO-GS-KSV1 cell line.
# • CD-CHO media (Life technologies, CAT #10743029) • Corning 125 mL Polycarbonate Erlenmeyer Flask with Vent Cap (CAT #734-1885). • Gene Pulser® Electroporation Cuvettes, 0.4 cm gap (BioRad, CAT #165-2088) • Gene Pulser Xcell Total System (BioRad, CAT, #1652660) • GS-vector DNA ([…] in 100 μL TE buffer) linearised with Sca1 • Suspension cultures of CHOK1SV GS-KO host cells.
# Cell suspensions of 6×10^5 cells per mL were incubated on an orbital shaker set at 8% CO2, 20% O2, 37° C., 85% relative humidity and 140 rpm overnight. 2.86×10^7 cells were centrifuged at 200 g for 3 minutes. Media was then aspirated and cell pellet resuspended in 2 mL fresh CD-CHO media to obtain a concentration of 1.43×10^7 cells per mL. 700 μL of cell suspension was added to each of two electroporation cuvettes each containing […] of linearised DNA in 100 μL of sterile TE buffer (Thermofisher, 12090015). Each cuvette was electroporated, delivering a single pulse of 300V, […] with resistance to infinity. Immediately after delivery of pulse electroplated cells were transferred to Erlenmeyer 125 mL flask containing 20 mL of CD-CHO media pre-warmed to 37° C. Electroporated cells from two cuvettes are combined into a single 125 mL flask to generate one pool of cells. Cells are cultured on an orbital shaker set at 8% CO2, 20% O2, 37° C., 85% relative humidity and 140 rpm. Cells are transferred to fresh CD-CHO media 24 hours after transfection and cell cultures monitored and given fresh CD-CHO media every 2-4 days. Usually after about 10-14 days cell numbers will be high enough to start passaging.
# The transfected DNA was the pXC-17.4 expression vector (Lonza Biologics plc) where one of the promoter constructs (or a control promoter (CMV-IE) have been cloned upstream of the secreted alkaline phosphatase (SEAP) gene, which had been cloned into the multiple cloning site within the vector expression cassette. Promoters were closed into the pXC-17.4 vector using Gibson assembly. The pXC-17.4 expression vector is designed for making stable cell lines in the CHO-GSK1SV cell line as it contains the […] gene which has been knocked out of the cell line. Therefore, selection of cells in glutamine drop-out medium will select for cells that have stably integrated the plasmid.
# The responsiveness of the RTV-019 promoter to different concentrations of forskolin and […] was tested in the stably transfected CHO-GS-KSV1 cell line. To this end, the stably transfected CHO-GS cells were seeded at 500,000 cells/ml and allowed to grow for 24 hrs. At this point the cells were induced by addition of the respective concentrations of forskolin and NKH477 and SEAP expression was measured as described below after 24 hours.
# The promoter activity and inducibility of FMP-02, FORCYB-001, RTV-017, FORCSV-10, FOR-CMC-009, FLP-01 and RTV-019 were also tested in the stably transfected CHO-GS-KSV1 cell line. To this end, the stably transfected CHO-GS cells were seeded at 500,000 cells/ml and allowed to grow for 24 hrs. At this point the cells were exposed to […] forskolin or […] NKH477 for 24 hours. After this point, the SEAP activity in the medium was assessed as described below.
# SEAP Reporter Gene Assay, chemiluminescent (Roche, CAT #11 779 842 001) was used to measure SEAP activity as per the manufacturer's protocol. All reagents and samples were fully pre-equilibrated at room temperature. Culture supernatant was collected from the stably transfected CHO-GS at the specific time points (0 h and 24 h). The supernatant was diluted 1:4 in dilution buffer and heat treated at 65° C. for 30 minutes. The heat-treated sample was then centrifuged for 30 s at maximum speed. 50 μl of the heat-treated sample was then added to 5 μl of inactivation buffer and incubated for 5 min at room temperature. 50 μl of substrate reagent was then added and incubated for 10 min at room temperature. […]
molecule,measurement,setting,value
"FMP-02: synthetic forskolin-inducible promoter, SEQ ID NO: 41; 8× AP1(1) TFBS and MinTK minimal promoter (nucleic acid, Synp-FMP-02, 8× AP1(1) TFBS and MinTK minimal promoter) DNA: TGAGTCAGATGATGCGTAGCTAGTAGTTGAGTCAGATGATGCGTAGCTAGTAGTTGAGTCAGATGATGCGTAGCTAGTAGTTGAGTCAGATGATGCGTAGCTAGTAGTTGAGTCAGATGATGCGTAGCTAGTAGTTGAGTCAGATGATGCGTAGCTAGTAGTTGAGTCAGATGATGCGTAGCTAGTAGTTGAGTCAGTAGTCGTATGCTGATGCGCAGTTAGCGTAGCTGAGGTACCGTCGACGATATCGGATCCTTCGCATATTAAGGTGACGCGTGTGGCCTCGAACACCGAGCGACCCTGCAGCGACCCGCTTAA",relative rank of promoter (fold induction/strength),HEK293-F,weakest
same,relative rank of promoter strength,CHO-GS-KSV1 cell line,weakest
